{"source": "a protein production outcome set (Wang et al. 2014)", "test": "label from the status in PepcDB records"}
{"sequence": "MEVKFLDYTLRVGGEAGQGLQTIGGALAKIFSRKGYHVFTHQDYMSRIRGGHNFYQLRFSDREVMASKELVDILLALDLNTIEIHKNSVREDGFILYDSESMKKKFEGPQFIDIPFRKIALDVGKKSVMANTVATGAVLGLLDLGLDLLNDILRVTFEDKGKEIIEQNIACAEAGYNYAHSNCSRCEAFGIPEPEARKLLLIDGVQAIGMGALMSGCTFYSAYPMSPSTGILNYLASRAEEYGLVIEQAEDEIAAINMTIGASFAGARAMTGTSGGGFSLMAEGISLAGITETPLVLAEMQRPGPATGLPTRTEQGDLLFVLNAGHGEFPRVIFEPGTPEQAFYLTSKAFELAEKYQIPVFILSDQYLGESEWTFESFDLKRPVYNDYRVREKDLEGAEDYKRYGYTDTGISPLAVPGEAGKHLVVADSDEHDEEGHIIEDAETRIKMVQKRLLKKLPLIKEEIEAPLLYGDSSPEIVLVGHGSTYGVIKEIVDIFSKDKKIAMMHFSQIYPFPERDRFDYIEFLKNANLVISVENNATGQFAKLMRAETGFEFARQILKYDGRPFTIEKLKEEIDACL", "values": [{"measurement": "protein production", "value": "failed"}]}
{"sequence": "MAKSPKFMVFHLRELIYTLVFILLGIILIISLVIMFYNRGNKQEKEENTGVYEPGVYTSCVTLNGNPMDVKVTLDDNHINSITVDNVSNTITTMYPLVEPAFNDIANQIVTNQSLENIKFDDNSKYTYTILYNAILDTIEKGKVGE", "values": [{"measurement": "protein production", "value": "failed"}]}
{"sequence": "MKQLSFNKLYFEGIKDAIPISIGYLPIGMAFGVLAKSMGIPYEISILMSLIIFAGASQFVGVNLIAIGTSSFEIVLTTFILNLRHFLMSSSLSQRIDYTKSKKFLSLISFGVTDETFAVASLKEELKLSPEFLFGLNFTAFFAWNFGTVLGIFLAESIPKEIQSSMGISLYVMFIGLLIPAVRRSTKVLKIFLVAVFISSALTWVPVFKFISTGWIIIITTIVASFIGAKFIHGDGDE", "values": [{"measurement": "protein production", "value": "failed"}]}
{"sequence": "MLSTEHFLLFASIVLFAGIMAGKVGYRFGIPTLLIFLFTGMLFGVDGFGFQFSNADVAQSVGIIALSIILFTGGMDTRIRKVRPVIAQGLTLSTLGVLLTALLSGFFIFWLSGSDFGPYPFALSTSLLLAATMASTDSASVFAILRSQKMQLKENLAPTLEMESGSNDPMAYMLTIALIDFITTGQSGIGSIVLTFILQFVVGGTLGFLMGRLAVFILNRMNIHNDTLYPITLLCMVFFTFSVTSLLQGNGYLAVYIAGIVVGNNRVIHKKSINTFLDGITWLVQIILFILLGLLVNPREMLDVAPFSLVVGAFMILIARPLAVYFCLIPFRKISFRGKTFLSWVGLRGAVPIIFATYPMIDNIPGADQLFNVVFFITILSLLVQGSTISQVARWLGLDIPSPPIGSLFGVEIPEETGTKLEERVVDASMLSHGDLLMNLSLRDEELVILVRRGEGYRVPKGRMHLQVGDVLLIVSEKNLSQTLTSGDPENHPGLLQRLKHRLLRR", "values": [{"measurement": "protein production", "value": "failed"}]}
{"sequence": "RFHNDGEALLAAFLAGDLAGIGAMTPEPAALEPARRLRRFYVRPDMRRRGVATALASALIHEGFDSVRLLTVNARAADAAAPFWEAQGFEPDTIGPWTH", "values": [{"measurement": "protein production", "value": "failed"}]}
{"sequence": "MQVELIIKNLKVYNSYFKKFIKSDVLINEGKFLHIGKGYEDRLWSENIIDGEDKYIIPGLIDIHMHIESSMTIPREFSKAAIKHGVTTVVADPHEIANVFGVRGIEEFIKFKGNLDIFYGILEHHHHHH", "values": [{"measurement": "protein production", "value": "failed"}]}
{"sequence": "MGKRRFQKAKETSSVAEASSPTESQATRRRRGRPRKNLENPEDFKKEESEEDEDYEEYEDEEEEDEEAEVVINREKLKKKVRSSSGSMEKEQKMKHEELEEEEKPEMTVKVVVPPPSSRRSRRKSTPVKSW", "values": [{"measurement": "protein production", "value": "failed"}]}
{"sequence": "MRREKTMDTLIRSIMIKSKRKMDAKVAQFGLTTQQARVLGFLNDNAANEIIQKDLQRIFQTRGASITSLIQGLEKKQLISRKPSIRDGREKVVTLTEEGKRIVDEFNESFPREDDKAKKILSADEYKIFIDLLSKIDDNTELEHHHHHH", "values": [{"measurement": "protein production", "value": "not failed"}]}
{"sequence": "DARVQVMGIDAGGTMTDTFFVKENGSFVVGKAQSNPEDESLAIYNSSQDALSHWKSDVSKVYPELVTCVYSGTAMLNRVVQRRGMEVGLICNKGFEQMHSMGRALQSYLGYALEERLHINTHKYDDPLIPLKRIRGVTERTDVKGQVVIPVRQEEVKVAVKELLEAGAKAIVICLLQSHKNAESERIVRDIALKEIEKLGKN", "values": [{"measurement": "protein production", "value": "failed"}]}
{"sequence": "MRRRVAYARDYGDHIMGKFKFPTAYTILFVLIALVAAMTWIVPAGKYQMVTNAALGKEVPVAGTYAPVEAQPQGITAVLLAPIDGLYNHQTYTAGAIDVALFVLIIGGFLGVVNKTGAIDAGIERVTTRLNGREEWMIPILMALFAAGGTIYGMAEESLPFYTLLVPVMMAARFDPLVAAATVLLGSGIGTLGSTINPFATVIAANAAGIPFTQGILLRVILLLVGYVICVYWVMRYARKVRNSPESSIVADKMAENQAHFLGNRSETMLEFTPTRKAILILFAASFAFMIYGVAVLGWWMAEISAVFLAAAVIVGVIARMGEETFTSTFIDGARDLLGVALIIGIARGIVVVMDNGMITHTILHSAENLVSGLSTTVFINVTYWLEVLLSFLVPSSSGLAVLTMPIMAPLADFAHVQRDLVVTAYQSASGVVNLITPTSAVVMGGLAIARVPWVRYLRWVAPLLLILTMLNMIVLSIAAMI", "values": [{"measurement": "protein production", "value": "failed"}]}
{"sequence": "MRLIVVGIAEDITEKKQLETELQRLATTDVLTQSSNRRHFFECANREFEQARLQGSSLAFLLLDIDDFKVINDTYGHPEGDIVLQRIAESGRAALRRGDLFGRIGGEEFAAVFPGCTADMARQVAERLQREIQRQNFSHQGQTFTITVSQGLTGLLAEDESLDNLFARADSAMYEAKRQGKNRIITGLEHHHHHH", "values": [{"measurement": "protein production", "value": "failed"}]}
{"sequence": "MKMEARQKQNSFTSKMQKIVNHRAFTFTVIALILFNALIVGIETYPRIYADHKWLFYRIDLVLLWIFTIEIAMRFLASNPKSAFFRSSWNWFDFLIVAAGHIFAGAQFVTVLRILRVLRVLRAISVVPSLRRLVDALVMTIPALGNILILMSIFFYIFAVIGTMLFQHVSPEYFGNLQLSLLTLFQVVTLESWASGVMRPIFAEVPWSWLYFVSFVLIGTFIIFNLFIGVIVNNVEKAELTDNEEDGEADGLKQEISALRKDVAELKSLLKQSK", "values": [{"measurement": "protein production", "value": "failed"}]}
{"sequence": "MSLKIKNILLSGGSGKRLWPLSRSLYPKQFLKLFDHKSLFELSFKRNASLVDETLIVCNEKHYFLALEEIKNEIKNKSVGFLLESLSKNTANAIALSALMSDKEDLLIVTPSDHLIKDLQAYENAIKKAIDLAQKGFLVTFGVSIDKPNTEFGYIESPNGLDVKRFIEKPSLDKAIEFQKSGGFYFNSGMFVFQAGVFLDELKKHAPTILKGCERAFESLENAYFFEKKIARLSEKSMQDLEDMSIDIALMQQSHKIKMVELNAKWSDLGNFNALFEEAANEPKENVSLNQTPVFAKESEEGHHHHHH", "values": [{"measurement": "protein production", "value": "not failed"}]}
{"sequence": "MTTFHADSSITRTFWRYAIPSIAAMVVSGLYQIIDGIFVGHYIGFEGLAGINMAWPAICILGAIGVMVGMGTGSVMSIYRGENKLEKTKVALTTGFWLLAILSIIAISCIVLLAKDILLAQGAEGQNFAYAMDYINVLMFGGFFTACATALPMLVRNDESPNVATFLLVIGALINIVLDYVFIGVMGLGLSGAALATLMAQACVTVLGIGYFFTQRSSIQITLQEVLFSWNKAKQSLSLGASALVMYLYGSFVVAMHNALMMYYGSATTVGAYAIVGYLFMLYYLLAQGIAEGAQPPISYYFGARENKKVYQIFKIALKWVIITGIGWVTILNISPELTTALFTNGDKALIAETIVGIRYHLFAMFLDGMIVLITIYFLSVNEGKKAMVISISNIVIQLPFLLILPKWFGIDGVWLAMPVSNIALIICIAPMVWNHLKTQKIIKPLPLTSTSVMSH", "values": [{"measurement": "protein production", "value": "failed"}]}
{"sequence": "MESDRNLNYINLFMIFVNLIIIVFTSEIMTITLYKISSEFMARDFLDQITVIPWKPQNITIVSIGAYIILIILITVKKKYAKFLNKWEIAALLLCEIFFSVAIMTALNMSYNGIILFIIADLVTNTKDKSNKIIFLILMIIIYIFSVYDFISLKIKMVSFENFLYYYTANRRSYLMELKSILNSINIIVFILYMIVFIQVQMRENEKITSLNKKLNLANEKLEVMNVQLKEYAVKIGSMAETRERNRMAREIHDTLGHALTGISVGIDACLTTIDVSKELTKKQLNIIADVAREAIKDVRRSVKKLRPDALENSSLQDALNNMISRISKATKTKVFLNANIKLLKFGHDEEDTIYRIIQEGITNSIRHGQAEEIYIDMIRRDKQLNITIRDNGKGCANVEEGFGLRHIEERVKLLNGTVEYDGSDSFLITVNIPIRWGDGS", "values": [{"measurement": "protein production", "value": "failed"}]}
{"sequence": "MGGIPDITPYPLTYSLGGVIPLSSVLEMLWVEKYRPRSLDDIVDQKHVVERLKQFVKQRNMPHLLFAGPPGTGKTTAAHALAHDLFGENYRQYMLELNASDERGINVIREKVKEFARSRTPPEIPFKIVLLDEADNMTSDAQQALRRLMELYSSVTRFILIANYPSKIIDPIQSRCAFFRFQPLSKQDVIERLRYIAENEGVDYEEEALDAIYEISEGDMRKAINVLQAASYLGKVTVDAVYRVVGMAKPREVREMLATALKGDFTAARSLLRKIMIEYGMSGEDVARQIHRELFSTELKMPEELRVLAADYLGEVHYRLVEGSDDDIQLSAFLAWLTMMSRKLEV", "values": [{"measurement": "protein production", "value": "not failed"}]}
{"sequence": "MPNILYKIDNQYPYFTKNEKKIAQFILNYPHKVVNMTSQEIANQLETSSTSIIRLSKKVTPGGFNELKTRLSKFLPKEVTQYNVELVDNESTISLKNKLHSRSKAAL", "values": [{"measurement": "protein production", "value": "not failed"}]}
{"sequence": "IQAGILANSFHVKLSDETQMVVKYQNQPFVNGTFGNWQILEAETINGINQILWRNPDIEEVGIWNTDANWNWISSETWSANSLKTLNAEVTFQIDINNDQLIG", "values": [{"measurement": "protein production", "value": "failed"}]}
{"sequence": "MGKNIPSSLDLYPIIHNYLQEDDEILDIGCGSGKISLELASLGYSVTGIDINSEAIRLAETAARSPGLNQKTGGKAEFKVENASSLSFHDSSFDFAVMQAFLTSVPDPKERSRIIKEVFRVLKPGAYLYLVEFGQNWHLKLYRKRYLHDFPITKEEGSFLARDPETGETEFIAHHFTEKELVFLLTDCRFEIDYFRVKELETRTGNKILGFVIIAQKLLEHHHHHH", "values": [{"measurement": "protein production", "value": "not failed"}]}
{"sequence": "MKYAIREYKGKNVDLSKLSSIIENYFREENFVTQSSQHPRGYVIQAKKGGIFRTILGMDRAFTIVLVGDSSDFKVQIGVGKWLQDLGVAAIEAFLITPVVAFVEVPESLWSFELEHEFWQFLENQINLGIQ", "values": [{"measurement": "protein production", "value": "failed"}]}
{"sequence": "MNPGAYAVPSSAQGWTGTESIGKSSAVNHHRDDGGQEMAGALRKMAVYLGLVEDDRYDHRYADEYDDFEDFDEPLDERPSRNRSPRDDSRNNAVTDSSDHSPSRNERRSPAPAPATADLARITTLHPRTYNEARTIGEHFREGIPVIMNLTEMVDSDAKRLVDFAAGLIFGLHGSIERVTNKVFLLSPANVEVTAEDKARIAERGFFNQS", "values": [{"measurement": "protein production", "value": "failed"}]}
{"sequence": "MKILSFAVLAAICLPMMPITTFAAETSATNALSQSQLFSRGDEYANVKISPTGKYLSAITSVEGKNVLLVLDAQTKKLLNAIRFPSNAQVGTYEWASSERIVLAKEYLKGWSDVPQYYGELMAVNADGSRPAYLFGFNSGEQQTGSNIKKNTAIKATAFILDPLPDDERYMLVNAIPWNNESSLNLELKQDVYRVDLFSGVRKRITGSPIGQARFMTDHEGEVRFVTGEDGQNVTKVFYRKDGDWVNTDKLNLGLSDFTPISFADNKNTIYAAGRVGTETLGVYRINLETGEKTEIIQDEVVDPSNFWINGTNKQLYAVEFENGYPSYAFVDNNDNHAKLLKDLIAALPGHQVQIVSETRNGEQLVVIAFNDRNPGDYYLFDTKKLKLEYLAAARKWLDPEQMAEVKPISFTNRDGQKIHGYLTLPYGKEAKNLPLVVNPHGGPHGIRDWWGFDPQNQLLAQNGMAVLQVNFRGSGGYGERFEQAGYQKWGSDIQHDIIDATQYVIGQGFVDKERICIAGGSFGGYSALQSAVLAPDMFKCAVGFAGVYDLELMFDEGDVARTRSGTSYLKDVLGQDKATLKAMSPSENVAKLKANLLLVHGGEDERAPIEQLESLEKALKNHNYPYQKLVMDNEGHGFYNDTHRAKYYDQMLSFLKTNLKL", "values": [{"measurement": "protein production", "value": "failed"}]}
